Data published in publication PMC5815094, “Interplay between the catabolite repression control protein Crc, Hfq and RNA in Hfq-dependent translational regulation in Pseudomonas aeruginosa”.

How the values were obtained:
Hfq;Crc [1] = molecular target: T1, Hfq;Crc (Pseudomonas aeruginosa PAO1;Pseudomonas …, UniProt Q9HUM0;Q51380 1-82;1-259, |); assay: co-IP (anti-Hfq); RNA-dependent Crc capture; ES buffer: 10 mM Tris pH 8.0, 10 mM KCl, 40 mM NaCl, 1 mM MgCl2; MST + 0.05% Tween-20, room temperature; EMSA + 25 ng tRNA per 10 ul, 37 C 15 min (Fig 6D); NMR; conditions: protein: recombinant;recombinant; tags: none stated;His6-tag (N-terminal) removed with HRV14-3C; chain copies: 6;1
Hfq;Crc [2] = molecular target: T1, Hfq;Crc; assay: MST; 30 nM labelled Hfq6, RNA titrated, 360 nM Crc; ES buffer: 10 mM Tris pH 8.0, 10 mM KCl, 40 mM NaCl, 1 mM MgCl2; MST + 0.05% Tween-20, room temperature; EMSA + 25 ng tRNA per 10 ul, 37 C 15 min (Fig 6D); NMR; conditions: protein: recombinant;recombinant; tags: none stated;His6-tag (N-terminal) removed with HRV14-3C; chain copies: 6;1; label: 5'-32P (EMSA); unlabelled (MST)
Hfq = Hfq (Pseudomonas aeruginosa PAO1, UniProt Q9HUM0 1-82); assay: MST; 30 nM labelled Hfq6, no Crc; ES buffer: 10 mM Tris pH 8.0, 10 mM KCl, 40 mM NaCl, 1 mM MgCl2; MST + 0.05% Tween-20, room temperature; EMSA + 25 ng tRNA per 10 ul, 37 C 15 min (Fig 6D); NMR; conditions: protein: recombinant; tags: none stated; chain copies: 6; label: 5'-32P (EMSA); unlabelled (MST)

Binder | binding result (Hfq;Crc [1]) | Kd (Hfq;Crc [2]) | Kd (Hfq)
AAAAAAAAAAAAAAAAAAAAAAAAAAA (ssRNA) [poly(A)27] | binds |  | 
AAAAAUAACAACAAGAGG (ssRNA) [amiE6ARN] |  | 33.9 ± 1.7 nM | 43.2 ± 2.3 nM
